Laboratory results: EP4702992A1 (CSPC Megalith Biopharmaceutical Co., Ltd., dated 2024)

T1: recombinant human DLL3 protein (Kactus Biosystems, Cat. No. DLL-HM103) (human, UniProt Q9NYJ7 27-492, limits assumed)
T1 construct: Bought protein coated on the ELISA plate; also called Human DLL3 proteins
T1 sequence (looked up): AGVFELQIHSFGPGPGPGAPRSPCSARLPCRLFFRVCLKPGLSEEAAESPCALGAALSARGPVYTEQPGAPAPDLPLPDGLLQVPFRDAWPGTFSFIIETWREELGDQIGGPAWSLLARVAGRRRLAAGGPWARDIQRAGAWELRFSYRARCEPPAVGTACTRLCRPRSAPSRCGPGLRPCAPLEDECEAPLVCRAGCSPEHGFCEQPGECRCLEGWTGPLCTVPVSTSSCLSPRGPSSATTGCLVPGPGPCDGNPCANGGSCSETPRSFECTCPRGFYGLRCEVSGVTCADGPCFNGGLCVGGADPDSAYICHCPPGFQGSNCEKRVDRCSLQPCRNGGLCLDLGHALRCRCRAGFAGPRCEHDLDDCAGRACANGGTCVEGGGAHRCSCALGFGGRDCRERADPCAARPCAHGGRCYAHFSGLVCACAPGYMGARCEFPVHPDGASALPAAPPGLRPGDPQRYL

T2: B7H3 antigen on the surface of A375 cells (human, UniProt Q5ZPR3 29-534)
T2 construct: whole, on cells
T2 sequence (looked up): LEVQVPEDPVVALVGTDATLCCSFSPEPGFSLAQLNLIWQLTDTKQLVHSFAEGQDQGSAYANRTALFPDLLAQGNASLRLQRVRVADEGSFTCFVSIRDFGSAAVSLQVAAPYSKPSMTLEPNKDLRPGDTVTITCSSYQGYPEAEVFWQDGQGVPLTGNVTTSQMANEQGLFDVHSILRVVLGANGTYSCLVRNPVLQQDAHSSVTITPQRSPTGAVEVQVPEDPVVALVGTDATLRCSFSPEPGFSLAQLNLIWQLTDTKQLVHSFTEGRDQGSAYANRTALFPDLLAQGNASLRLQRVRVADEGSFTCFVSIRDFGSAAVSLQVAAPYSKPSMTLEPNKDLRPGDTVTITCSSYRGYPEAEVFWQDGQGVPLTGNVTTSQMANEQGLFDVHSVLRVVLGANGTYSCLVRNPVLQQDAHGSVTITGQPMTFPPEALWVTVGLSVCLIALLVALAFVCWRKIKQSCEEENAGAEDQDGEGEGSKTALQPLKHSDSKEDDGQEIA


Target: T1, recombinant human DLL3 protein (Kactus …)
Assay: ELISA, human DLL3 coated at 0.1 µg/mL, absorbance at 450 nm

Binder	EC50	Emax
33B (antibody, human IgG1, kappa, L234A L235A, V domains shown, Naked anti-DLL3 antibody) VH: QVQLVQSGAEVKKPGASVKVSCKASGYTFTDYYMKWVRQAPGQRLEWMGAFNLNNGDTFYNQKFKGRVTITRDTSASTAYMELSSLRSEDTAVYYCARDVYGYGDYWGQGTSVTVSS VL: DIVMTQSPDSLAVSLGERATINCRASKSVSTSGYSYMHWYQQKPGQPPKLLIYLASNLDSGVPDRFSGSGSGTDFTLTISSLQAEDVAVYYCQHSRELPYTFGGGTKLEIKR	1.87 pM	2.5
D-ADC55-1-8 (antibody, human IgG1, kappa, L234A L235A, V domains shown, linker-drug LD55-1 (exatecan payload) conjugated to sulfhydryls of reduced interchain disulfide cysteines; average DAR 8.0 per antibody, Antibody-drug conjugate: 33B + LD55-1, DAR 8.0) VH: QVQLVQSGAEVKKPGASVKVSCKASGYTFTDYYMKWVRQAPGQRLEWMGAFNLNNGDTFYNQKFKGRVTITRDTSASTAYMELSSLRSEDTAVYYCARDVYGYGDYWGQGTSVTVSS VL: DIVMTQSPDSLAVSLGERATINCRASKSVSTSGYSYMHWYQQKPGQPPKLLIYLASNLDSGVPDRFSGSGSGTDFTLTISSLQAEDVAVYYCQHSRELPYTFGGGTKLEIKR	6.28 pM	2.5
D-BATADC (antibody, human IgG1, kappa, L234A L235A, V domains shown, control linker-drug BATLD conjugated to the antibody; average DAR 7.7 per antibody) VH: QVQLVQSGAEVKKPGASVKVSCKASGYTFTDYYMKWVRQAPGQRLEWMGAFNLNNGDTFYNQKFKGRVTITRDTSASTAYMELSSLRSEDTAVYYCARDVYGYGDYWGQGTSVTVSS VL: DIVMTQSPDSLAVSLGERATINCRASKSVSTSGYSYMHWYQQKPGQPPKLLIYLASNLDSGVPDRFSGSGSGTDFTLTISSLQAEDVAVYYCQHSRELPYTFGGGTKLEIKR	5.27 pM	2.6
D-ADC2-1-8 (antibody, human IgG1, kappa, L234A L235A, V domains shown, linker-drug LD2-1 (exatecan payload) conjugated to sulfhydryls of reduced interchain disulfide cysteines; average DAR 8.0 per antibody, Antibody-drug conjugate: 33B + LD2-1, DAR 8.0) VH: QVQLVQSGAEVKKPGASVKVSCKASGYTFTDYYMKWVRQAPGQRLEWMGAFNLNNGDTFYNQKFKGRVTITRDTSASTAYMELSSLRSEDTAVYYCARDVYGYGDYWGQGTSVTVSS VL: DIVMTQSPDSLAVSLGERATINCRASKSVSTSGYSYMHWYQQKPGQPPKLLIYLASNLDSGVPDRFSGSGSGTDFTLTISSLQAEDVAVYYCQHSRELPYTFGGGTKLEIKR	4.64 pM	2.5
D-ADC12-1-8 (antibody, human IgG1, kappa, L234A L235A, V domains shown, linker-drug LD12-1 (exatecan payload) conjugated to sulfhydryls of reduced interchain disulfide cysteines; average DAR 8.0 per antibody, Antibody-drug conjugate: 33B + LD12-1, DAR 8.0) VH: QVQLVQSGAEVKKPGASVKVSCKASGYTFTDYYMKWVRQAPGQRLEWMGAFNLNNGDTFYNQKFKGRVTITRDTSASTAYMELSSLRSEDTAVYYCARDVYGYGDYWGQGTSVTVSS VL: DIVMTQSPDSLAVSLGERATINCRASKSVSTSGYSYMHWYQQKPGQPPKLLIYLASNLDSGVPDRFSGSGSGTDFTLTISSLQAEDVAVYYCQHSRELPYTFGGGTKLEIKR	5.84 pM	2.6

Target: T3, FOLR1 antigen (Sino Biological, Cat. No. 11241-H08H) (UniProt P15328 25-233)
T3 construct: Bought protein coated on the ELISA plate; also called FRα
T3 sequence (P15328 25-233 limits assumed): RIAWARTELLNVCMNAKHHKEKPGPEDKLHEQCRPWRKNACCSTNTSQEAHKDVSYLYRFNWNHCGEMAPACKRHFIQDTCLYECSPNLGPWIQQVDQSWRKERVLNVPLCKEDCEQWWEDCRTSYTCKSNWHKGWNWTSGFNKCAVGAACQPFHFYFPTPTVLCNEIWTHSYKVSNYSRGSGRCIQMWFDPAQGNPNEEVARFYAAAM
Assay: ELISA, FOLR1 coated at 0.1 µg/mL, anti-human IgG-HRP detection

Binder	EC50
Farletuzumab (antibody, human IgG1, kappa, Naked anti-FRα antibody) heavy: not shown light: DIQLTQSPSSLSASVGDRVTITCSVSSSISSNNLHWYQQKPGKAPKPWIYGTSNLASGVPSRFSGSGSGTDYTFTISSLQPEDIATYYCQQWSSYPYMYTFGQGTKVEIKRTVAAPSVFIFPPSDEQLKSGTASVVCLLNNFYPREAKVQWKVDNALQSGNSQESVTEQDSKDSTYSLSSTLTLSKADYEKHKVYACEVTHQGLSSPVTKSFNRGEC	26.1 pM
F-ADC55-1-8 (antibody, human IgG1, kappa, linker-drug LD55-1 (exatecan payload) conjugated to sulfhydryls of reduced interchain disulfide cysteines; average DAR 7.6 per antibody, Antibody-drug conjugate: farletuzumab + LD55-1, DAR 7.6) heavy: not shown light: DIQLTQSPSSLSASVGDRVTITCSVSSSISSNNLHWYQQKPGKAPKPWIYGTSNLASGVPSRFSGSGSGTDYTFTISSLQPEDIATYYCQQWSSYPYMYTFGQGTKVEIKRTVAAPSVFIFPPSDEQLKSGTASVVCLLNNFYPREAKVQWKVDNALQSGNSQESVTEQDSKDSTYSLSSTLTLSKADYEKHKVYACEVTHQGLSSPVTKSFNRGEC	36.9 pM
Farletuzumab-FcS (antibody, human IgG1, kappa, L234A L235A, also called Farletuzumab-FS) heavy: not shown light: DIQLTQSPSSLSASVGDRVTITCSVSSSISSNNLHWYQQKPGKAPKPWIYGTSNLASGVPSRFSGSGSGTDYTFTISSLQPEDIATYYCQQWSSYPYMYTFGQGTKVEIKRTVAAPSVFIFPPSDEQLKSGTASVVCLLNNFYPREAKVQWKVDNALQSGNSQESVTEQDSKDSTYSLSSTLTLSKADYEKHKVYACEVTHQGLSSPVTKSFNRGEC	19.9 pM

Target: T2, B7H3 antigen on the surface of A375 …
Assay: flow cytometry (MFI) on B7H3-positive A375 cells, anti-human Alexa Fluor 488

Binder	EC50
DSADC (antibody, V domains shown, control linker-drug per CN104755494A conjugated to the antibody; average DAR 3.9 per antibody, Control anti-B7H3 ADC; the tie of DSADC to M30 is by position and a drawing only; also called M30 antibody conjugate) VH: QVQLVQSGAEVKKPGSSVKVSCKASGYTFTNYVMHWVRQAPGQGLEWMGYINPYNDDVKYNEKFKGRVTITADESTSTAYMELSSLRSEDTAVYYCARWGYYGSPLYYFDYWGQGTLVTVSS VL: EIVLTQSPATLSLSPGERATLSCRASSRLIYMHWYQQKPGQAPRPLIYATSNLASGIPARFSGSGSGTDFTLTISSLEPEDFAVYYCQQWNSNPPTFGQGTKVEIKR	0.0925 µg/mL
B-ADC55-1-6 (antibody, human IgG1, kappa, L234A L235A, V domains shown, linker-drug LD55-1 (exatecan payload) conjugated to sulfhydryls of reduced interchain disulfide cysteines; average DAR 5.7 per antibody, Antibody-drug conjugate: 43B + LD55-1, DAR 5.7) VH: QVQLVQSGAEVKKPGASVKVSCKASGYTFTDYFMNWVRQAPGQGLEWMGDVNPKTGSPSYNQKFKGRVTMTRDTSTSTVYMELSSLRSEDTAVYYCARRYGFLYSMDYWGQGTSVTVSS VL: DIQMTQSPSSLSASVGDRVTITCRASQDISNYLNWYQQKPGKAVKVLIYYTSRLHSGVPSRFSGSGSGTDFTFTISSLQPEDIATYYCQQGNTHPFTFGGGTKVEIKR	0.0378 µg/mL
B-ADC2-1-6 (antibody, human IgG1, kappa, L234A L235A, V domains shown, linker-drug LD2-1 (exatecan payload) conjugated to sulfhydryls of reduced interchain disulfide cysteines; average DAR 5.6 per antibody, Antibody-drug conjugate: 43B + LD2-1, DAR 5.6) VH: QVQLVQSGAEVKKPGASVKVSCKASGYTFTDYFMNWVRQAPGQGLEWMGDVNPKTGSPSYNQKFKGRVTMTRDTSTSTVYMELSSLRSEDTAVYYCARRYGFLYSMDYWGQGTSVTVSS VL: DIQMTQSPSSLSASVGDRVTITCRASQDISNYLNWYQQKPGKAVKVLIYYTSRLHSGVPSRFSGSGSGTDFTFTISSLQPEDIATYYCQQGNTHPFTFGGGTKVEIKR	0.0416 µg/mL
B-ADC12-1-6 (antibody, human IgG1, kappa, L234A L235A, V domains shown, linker-drug LD12-1 (exatecan payload) conjugated to sulfhydryls of reduced interchain disulfide cysteines; average DAR 6.0 per antibody, Antibody-drug conjugate: 43B + LD12-1, DAR 6.0) VH: QVQLVQSGAEVKKPGASVKVSCKASGYTFTDYFMNWVRQAPGQGLEWMGDVNPKTGSPSYNQKFKGRVTMTRDTSTSTVYMELSSLRSEDTAVYYCARRYGFLYSMDYWGQGTSVTVSS VL: DIQMTQSPSSLSASVGDRVTITCRASQDISNYLNWYQQKPGKAVKVLIYYTSRLHSGVPSRFSGSGSGTDFTFTISSLQPEDIATYYCQQGNTHPFTFGGGTKVEIKR	0.04 µg/mL
